Earlier results in patent US20260263505A1, “Uses of Compositions Comprising a Prebiotic Component” (Mead Johnson Nutrition Company, priority 2021, published 2026).

Tested on: Rats
Settings: after four weeks of diet, acute inescapable stressor

B1: lactoferrin: multifunctional iron-binding glycoprotein naturally present in milk; test diet of Mika et al. (protein, UniProt P24627 20-708, looked up)
Lactotransferrin: APRKNVRWCTISQPEWFKCRRWQWRMKKLGAPSITCVRRAFALECIRAIAEKKADAVTLDGGMVFEAGRDPYKLRPVAAEIYGTKESPQTHYYAVAVVKKGSNFQLDQLQGRKSCHTGLGRSAGWIIPMGILRPYLSWTESLEPLQGAVAKFFSASCVPCIDRQAYPNLCQLCKGEGENQCACSSREPYFGYSGAFKCLQDGAGDVAFVKETTVFENLPEKADRDQYELLCLNNSRAPVDAFKECHLAQVPSHAVVARSVDGKEDLIWKLLSKAQEKFGKNKSRSFQLFGSPPGQRDLLFKDSALGFLRIPSKVDSALYLGSRYLTTLKNLRETAEEVKARYTRVVWCAVGPEEQKKCQQWSQQSGQNVTCATASTTDDCIVLVLKGEADALNLDGGYIYTAGKCGLVPVLAENRKSSKHSSLDCVLRPTEGYLAVAVVKKANEGLTWNSLKDKKSCHTAVDRTAGWNIPMGLIVNQTGSCAFDEFFSQSCAPGADPKSRLCALCAGDDQGLDKCVPNSKEKYYGYTGAFRCLAEDVGDVAFVKNDTVWENTNGESTADWAKNLNREDFRLLCLDGTRKPVTEAQSCHLAVAPNHAVVSRSDRAAHVKQVLLHQQALFGKNGKNCPDKFCLFKSETKNLLFNDNTECLAKLGGRPTYEEYLGTEYVTAIANLKKCSTSPLLEACAFLTR
- stress-evoked cfos mRNA in the dorsal raphe nucleus: reduce
